Measurements: IntAct's records for PubMed 23663663

B1: E3 ubiquitin-protein ligase CBL-B (Homo sapiens), Q13191 (parent)
chain: MANSMNGRNPGGRGGNPRKGRILGIIDAIQDAVGPPKQAAADRRTVEKTWKLMDKVVRLCQNPKLQLKNSPPYILDILPDTYQHLRLILSKYDDNQKLAQLSENEYFKIYIDSLMKKSKRAIRLFKEGKERMYEEQSQDRRNLTKLSLIFSHMLAEIKAIFPNGQFQGDNFRITKADAAEFWRKFFGDKTIVPWKVFRQCLHEVHQISSGLEAMALKSTIDLTCNDYISVFEFDIFTRLFQPWGSILRNWNFLAVTHPGYMAFLTYDEVKARLQKYSTKPGSYIFRLSCTRLGQWAIGYVTGDGNILQTIPHNKPLFQALIDGSREGFYLYPDGRSYNPDLTGLCEPTPHDHIKVTQEQYELYCEMGSTFQLCKICAENDKDVKIEPCGHLMCTSCLTAWQESDGQGCPFCRCEIKGTEPIIVDPFDPRDEGSRCCSIIDPFGMPMLDLDDDDDREESLMMNRLANVRKCTDRQNSPVTSPGSSPLAQRRKPQPDPLQIPHLSLPPVPPRLDLIQKGIVRSPCGSPTGSPKSSPCMVRKQDKPLPAPPPPLRDPPPPPPERPPPIPPDNRLSRHIHHVESVPSRDPPMPLEAWCPRDVFGTNQLVGCRLLGEGSPKPGITASSNVNGRHSRVGSDPVLMRKHRRHDLPLEGAKVFSNGHLGSEEYDVPPRLSPPPPVTTLLPSIKCTGPLANSLSEKTRDPVEEDDDEYKIPSSHPVSLNSQPSHCHNVKPPVRSCDNGHCMLNGTHGPSSEKKSNIPDLSIYLKGDVFDSASDPVPLPPARPPTRDNPKHGSSLNRTPSDYDLLIPPLGEDAFDALPPSLPPPPPPARHSLIEHSKPPGSSSRPSSGQDLFLLPSDPFVDLASGQVPLPPARRLPGENVKTNRTSQDYDQLPSCSDGSQAPARPPKPRPRRTAPEIHHRKPHGPEAALENVDAKIAKLMGEGYAFEEVKRALEIAQNNVEVARSILREFAFPPPVSPRLNL

Variants of: B1
Details: with cd2ap_human CD2AP

effect of a mutation on the interaction	Variant
decreasing interaction	R904G

Variants of: B1
Details: with sh3k1_human SH3KBP1, Q96B97
Sequence of sh3k1_human SH3KBP1, Q96B97 (Q96B97 whole entry): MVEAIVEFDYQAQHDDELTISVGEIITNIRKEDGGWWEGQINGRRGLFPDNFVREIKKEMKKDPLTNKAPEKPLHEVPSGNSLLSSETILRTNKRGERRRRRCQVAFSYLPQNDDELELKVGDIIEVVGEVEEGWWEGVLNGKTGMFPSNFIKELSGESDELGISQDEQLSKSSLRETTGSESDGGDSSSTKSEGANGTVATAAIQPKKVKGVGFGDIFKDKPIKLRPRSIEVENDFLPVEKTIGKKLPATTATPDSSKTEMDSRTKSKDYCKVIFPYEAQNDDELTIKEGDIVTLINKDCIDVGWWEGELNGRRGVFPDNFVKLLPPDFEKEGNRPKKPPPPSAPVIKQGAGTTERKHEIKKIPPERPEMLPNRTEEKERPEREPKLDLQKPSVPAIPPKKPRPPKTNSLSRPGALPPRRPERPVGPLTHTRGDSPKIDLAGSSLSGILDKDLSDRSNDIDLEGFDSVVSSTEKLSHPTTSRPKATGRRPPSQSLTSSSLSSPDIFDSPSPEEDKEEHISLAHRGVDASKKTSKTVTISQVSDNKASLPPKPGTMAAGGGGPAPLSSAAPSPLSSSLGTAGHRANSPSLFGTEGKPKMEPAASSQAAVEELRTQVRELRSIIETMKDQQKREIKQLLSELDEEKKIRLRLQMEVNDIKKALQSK

effect of a mutation on the interaction	Variant
decreasing interaction	R904G

Variants of: B1
Details: with cd2ap_human CD2AP
Remark: another data set of the same source

effect of a mutation on the interaction	Variant
decreasing interaction	K907L

Variants of: B1
Details: with sh3k1_human SH3KBP1, Q96B97
Remark: another data set of the same source

effect of a mutation on the interaction	Variant
decreasing interaction	K907L

Variants of: B1
Details: with sh3k1_human SH3KBP1, Q96B97
Remark: another data set of the same source

effect of a mutation on the interaction	Variant
decreasing interaction	R911A

Variants of: B1
Details: with cd2ap_human CD2AP
Remark: another data set of the same source

effect of a mutation on the interaction	Variant
decreasing interaction	R911A
